Measurements: the RNAGym collection of RNA variant scans (doi:10.1021/acssynbio.7b00057)

B1: Pistol ribozyme (parent)
chain: GGGUCGUUGUUCCAUAAUCGCGUGGAUAUGGCACGCAAGUUUCUACCGGGCACCGUAAAUGUCCGACUGGAGCCGUUCGGGCGGCUAUAAACAGACCUCAGGCCCGAAGCGUGGCGGCACCUGCCGCCGGUGGUAAAAAAGAUCGGAAGAGCACACGUCU

Variants of: B1
Test: aptazyme ON/OFF ratio, guanine; higher = stronger switching; co-transcriptional cleavage with and without guanine

Aptazyme ON/OFF ratio, 1.18:
U7C U8G G9A U10A U11A C12U
U7C U8G G9C C12G C13U
U7C U8G G9A U10A C12U C13A
U7C U8G G9A U10C C12A

Aptazyme ON/OFF ratio, 1.46:
U7C U8G G9A U10G U11A C12U C13A

Aptazyme ON/OFF ratio, 1.26:
U7C U8G G9C U10A U11A C12U
U7C U8G G9A U10A U11A C12A
U7C U8G G9A U10C U11G C12U C13A
U7C U8G G9A U11G C12U

Aptazyme ON/OFF ratio, 1.08:
U7C U8G G9C U10A C13G
U7C U8G G9A U10G C12A C13G
U7C U8G C12A C13G
U7C U8G G9A U10A U11C C12U C13G
U7C U8G G9A U10A U11C C12U C13U
U7C U8G G9C
U7C U8G G9A U10C U11A C12A C13G
U7C U8G C12G C13G

Aptazyme ON/OFF ratio, 1.11:
U7C U8G G9A U10G U11G C12A C13A
U7C U8G G9C U10A U11C C12A C13G
U7C U8G G9C C12U
U7C U8G G9A U10C U11A C12G C13U
U7C U8G G9A U10C U11A C12A C13A

Aptazyme ON/OFF ratio, 1.27:
U7C U8G G9A U10A U11G C13U
U7C U8G C12A C13U
U7C U8G G9C C12G C13A
U7C U8G G9A U10A C12U C13U

Aptazyme ON/OFF ratio, 1.23:
U7C U8G G9A U10G C13A
U7C U8G G9A U11G C12G
U7C U8G G9A U10C C12G

Aptazyme ON/OFF ratio, 1.33:
U7C U8G G9A U10A U11G C12G C13U

Aptazyme ON/OFF ratio, 2.39:
U7C U8G G9A U10C C12U

Aptazyme ON/OFF ratio, 1.36:
U7C U8G G9A U10G C12A C13U
U7C U8G G9A U10G U11A C12U C13G

Aptazyme ON/OFF ratio, 1.47:
U7C U8G G9A U10G U11A C12A

Aptazyme ON/OFF ratio, 1.12:
U7C U8G G9A U10C U11G C13G
U7C U8G G9A U10G C12A C13A
U7C U8G G9A U10A C13A
U7C U8G G9A U10A U11A C12G C13A
U7C U8G G9A U10G U11G C12A C13U
U7C U8G G9C C12G C13G
U7C U8G G9A
U7C U8G G9A U10C U11G C12A C13A
U7C U8G G9A U11C C12A C13G

Aptazyme ON/OFF ratio, 1.29:
U7C U8G G9A U10G U11C C12G
U7C U8G G9A C12A C13U
U7C U8G G9A U10C U11G C12U

Aptazyme ON/OFF ratio, 1.19:
U7C U8G G9A U10A U11G C12G C13A
U7C U8G G9A U10G U11C C12G C13U
U7C U8G G9A U11A C12U C13A
U7C U8G G9C U10A U11C C12A
U7C U8G G9C U10A C12G C13U
U7C U8G G9A U10A C12A C13U
U7C U8G G9C U10A U11C C12A C13A

Aptazyme ON/OFF ratio, 1.41:
U7C U8G G9A U10G U11C C12G C13G
U7C U8G G9A U10G U11C C12A
U7C U8G G9A U10C U11G C13U

Aptazyme ON/OFF ratio, 1.05:
U7C U8G G9A U10A C13G
U7C U8G G9C U10A U11C C12U
U7C U8G G9A U11C C13U
U7C U8G G9C U10A C12U C13U

Aptazyme ON/OFF ratio, 1.21:
U7C U8G G9C C12A C13A
U7C U8G G9C U10A U11A C12U C13A
U7C U8G G9A U10A U11A C12A C13U
U7C U8G G9A U10A U11A C12G C13G
U7C U8G G9A U10A U11A C12G C13U
U7C U8G G9A U11G C13A
U7C U8G G9C U10A C12U C13A

Aptazyme ON/OFF ratio, 1.16:
U7C U8G G9A U10G C13G
U7C U8G G9A U10G U11A C12U
U7C U8G G9A C12A C13G
U7C U8G G9A U10A U11A C12U C13U

Aptazyme ON/OFF ratio, 1.15:
U7C U8G G9A U11A C12U C13U
U7C U8G G9A U10A U11C C12A C13A
U7C U8G G9A U10A U11C C12A C13G
U7C U8G G9C U10A C13U
U7C U8G G9A U11A C12A C13G
U7C U8G G9A U10A C13U
U7C U8G G9C U10A U11C C12G

Aptazyme ON/OFF ratio, 1.35:
U7C U8G G9A U10A U11G C12U C13U
U7C U8G G9A U10G U11C C12A C13A
U7C U8G

Aptazyme ON/OFF ratio, 1.17:
U7C U8G G9A U11A C12U C13G
U7C U8G G9A U10A U11C C12A C13U
U7C U8G G9A U10G C12G C13U
U7C U8G G9C U10A U11A C12U C13G
U7C U8G G9A U10A C12A C13A
U7C U8G G9C U10A U11C C12A C13U
U7C U8G G9A U10A C12U C13G
U7C U8G C12G C13U
U7C U8G G9A U10A U11A C12U C13A
U7C U8G G9A U10A U11A C12U C13G

Aptazyme ON/OFF ratio, 1.24:
U7C U8G G9A U11A C12A C13U
U7C U8G G9C U10A U11C C12G C13A
U7C U8G G9C U10A U11C C12G C13G
U7C U8G G9C U10A U11A C12U C13U
U7C U8G G9A U10A U11G C12U C13A
U7C U8G G9A U10G U11G C12A C13G
U7C U8G G9A U10G U11A C12G

Aptazyme ON/OFF ratio, 1.07:
U7C U8G G9A U10C U11C C12G C13U
U7C U8G G9A U10C U11G C12A
U7C U8G G9A U10C U11A C12G C13A
U7C U8G G9A U10C U11A C12A C13U

Aptazyme ON/OFF ratio, 1.04:
U7C U8G G9A U10C C13A
U7C U8G G9A U10A U11C C13U
U7C U8G G9C C13G
U7C U8G G9C C13U
U7C U8G G9A U10G U11A C13U
U7C U8G G9A U11C C13A

Aptazyme ON/OFF ratio, 1.31:
U7C U8G G9C C12A C13U

Aptazyme ON/OFF ratio, 1.54:
U7C U8G G9A U10G C13U

Aptazyme ON/OFF ratio, 1.28:
U7C U8G G9A U10C U11G C13A
U7C U8G G9C C12G
U7C U8G G9A C12A C13A
U7C U8G G9A U10C U11G C12U C13U

Aptazyme ON/OFF ratio, 1.03:
U7C U8G G9A U10A U11C C13A
U7C U8G G9A U11G C13G

Aptazyme ON/OFF ratio, 1.06:
U7C U8G G9A U10C C13G
U7C U8G G9C C13A

Aptazyme ON/OFF ratio, 1.3:
U7C U8G G9A U11A C12A C13A
U7C U8G G9C U10A U11C C12G C13U

Aptazyme ON/OFF ratio, 1.1:
U7C U8G G9A U10A U11A C12G
U7C U8G G9A U10G C12G C13G
U7C U8G G9A U10A C12A C13G
U7C U8G G9A U10G U11C C12A C13G
U7C U8G G9A U11C C12A C13A
U7C U8G G9A U10G U11A C13G

Aptazyme ON/OFF ratio, 1.02:
U7C U8G G9A U10A U11G C13G
U7C U8G G9A U10A U11C C13G
U7C U8G G9A U10C U11C C13A
U7C U8G G9A U10C U11C C13U
U7C U8G G9A U11C C13G

Aptazyme ON/OFF ratio, 1.92:
U7C U8G G9A U10C C13U

Aptazyme ON/OFF ratio, 1.01:
U7C U8G G9A U10C U11C C13G

Aptazyme ON/OFF ratio, 1.25:
U7C U8G G9A U10G C12G C13A
U7C U8G G9A U10A U11G C12U C13G
U7C U8G G9A U10G U11C C12A C13U

Aptazyme ON/OFF ratio, 1.09:
U7C U8G G9A U10C C12A C13G
U7C U8G G9C C12A C13G
U7C U8G G9A U10G U11A C13A
U7C U8G G9A U11G C12A
U7C U8G G9A U10C U11A C12G C13G
U7C U8G C12G C13A

Aptazyme ON/OFF ratio, 1.13:
U7C U8G G9A U10C C12A C13A
U7C U8G G9A U10C U11C C12G C13A
U7C U8G G9A U10C U11G C12A C13G
U7C U8G G9A U11G C13U
U7C U8G G9C U10A C12U C13G

Aptazyme ON/OFF ratio, 1.58:
U7C U8G G9C C12A

Aptazyme ON/OFF ratio, 1.22:
U7C U8G G9C U10A U11A C12A
U7C U8G C12A C13A
U7C U8G G9A U10C U11G C12G

Aptazyme ON/OFF ratio, 1.39:
U7C U8G G9A U10A U11G C12G C13G

Aptazyme ON/OFF ratio, 1.14:
U7C U8G G9A U10G U11C C12U
U7C U8G G9C U10A U11A C12G
U7C U8G G9A U10C C12A C13U
U7C U8G G9A U10C U11C C12G C13G
U7C U8G G9C U10A C13A
U7C U8G G9A U10A U11C C12U C13A
U7C U8G G9A U10C U11G C12A C13U
U7C U8G G9A U11C C12A C13U
U7C U8G G9A U10C U11G C12U C13G

Aptazyme ON/OFF ratio, 1.2:
U7C U8G G9A U10G U11C C12G C13A
U7C U8G G9A U10A U11G C13A
U7C U8G G9A U10A U11A C12A C13A
U7C U8G G9A U10A U11A C12A C13G
U7C U8G G9C U10A C12G C13A
U7C U8G G9C U10A C12G C13G
